Experimental data taken from publication PMC9977310, “ABT1 modifies SMARD1 pathology via interactions with IGHMBP2 and stimulation of ATPase and helicase activity” (JCI Insight, 2023).

How the values were obtained:
[1] = tested on: IGHMBP2;ABT1 (Homo sapiens;Mus musculus); test: MST; details: MST: 100 nM NT-647-labeled IGHMBP2 (+/- 100 nM ABT1), RNA titrated from 1 uM (single) or 500 nM each (two RNAs), buffer, salt, pH and temperature not stated. …
[2] = target: T1, immunoglobulin mu DNA binding protein 2 (IGHMBP2), human, full length, thioredoxin-6xHis fusion from pET32b (human, UniProt P38935 1-993, RED-Tris-NTA (NT-647) fluorescent label in the MST); test: cell-based or functional assay
T1 sequence (looked up): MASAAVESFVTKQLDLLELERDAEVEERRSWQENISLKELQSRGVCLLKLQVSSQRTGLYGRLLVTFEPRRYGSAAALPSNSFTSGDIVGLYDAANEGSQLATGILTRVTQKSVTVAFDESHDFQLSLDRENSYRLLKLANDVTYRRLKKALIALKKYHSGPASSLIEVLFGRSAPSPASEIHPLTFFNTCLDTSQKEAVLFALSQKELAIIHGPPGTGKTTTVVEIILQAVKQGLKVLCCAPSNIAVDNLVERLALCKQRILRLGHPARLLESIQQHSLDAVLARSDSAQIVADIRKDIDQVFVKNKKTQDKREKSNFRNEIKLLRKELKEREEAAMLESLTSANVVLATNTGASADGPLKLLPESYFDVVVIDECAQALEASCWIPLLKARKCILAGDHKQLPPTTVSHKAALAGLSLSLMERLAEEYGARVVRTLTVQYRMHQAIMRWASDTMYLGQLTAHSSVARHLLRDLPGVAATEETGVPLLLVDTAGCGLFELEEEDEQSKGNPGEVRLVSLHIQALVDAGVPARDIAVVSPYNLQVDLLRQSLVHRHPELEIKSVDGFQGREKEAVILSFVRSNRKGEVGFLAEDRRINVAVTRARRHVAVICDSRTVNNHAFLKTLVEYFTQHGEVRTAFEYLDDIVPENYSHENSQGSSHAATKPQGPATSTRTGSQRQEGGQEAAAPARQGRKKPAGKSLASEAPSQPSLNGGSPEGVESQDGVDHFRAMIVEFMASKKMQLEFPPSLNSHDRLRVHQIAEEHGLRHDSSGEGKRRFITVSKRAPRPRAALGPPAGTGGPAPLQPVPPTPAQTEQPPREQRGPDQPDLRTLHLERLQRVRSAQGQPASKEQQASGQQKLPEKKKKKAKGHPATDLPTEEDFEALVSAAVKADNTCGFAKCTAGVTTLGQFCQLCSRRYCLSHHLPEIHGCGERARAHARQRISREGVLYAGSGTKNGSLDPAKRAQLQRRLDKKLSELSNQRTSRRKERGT

[3] = target: T1, immunoglobulin mu DNA binding protein 2 …; test: not stated; stoichiometry of ABT1 to IGHMBP2, Supplemental Figure 1; told in the paragraph on DLS, method not given; details: both partners purified
[4] = target: T1, immunoglobulin mu DNA binding protein 2 …; test: MST; IGHMBP2 RED-Tris-NTA labelled, constant 100 nM; partner titrated (1 μM to 1.53 × 10^5 μM as printed); fit to a quadratic equation, MO.Affinity Analysis; details: both partners purified

U3 snoRNA
Kd [1]: 35 nM

5' ETS RNA (47S pre-rRNA)
Kd [1]: > 697 nM

5' ETS RNA + U3 snoRNA (annealed)
Kd ([1]; 100 nM IGHMBP2 + 100 nM ABT1, RNAs from 500 nM each): 28 nM

B1: activator of basal transcription 1 (ABT1), mouse, full length, GST fusion from pGEX-6P1 (natural protein, UniProt Q9QYL7 1-269, looked up)
chain: MVKAGELVEQQKAAMEEEANAEAAEDQEEPEDTACSSSSKKKKKVVPGIVYLGHVPPRFRPLHVRNLLSAYGEVGRVFFQAEDHFVKRKKKAAAAAGGKKGAKYSKDYTEGWVEFRDKRVAKRVAASLHNTPMGARKRSPFRYDLWNLKYLHRFTWSHLSEHLAFERQVRRQRLRAEVAQAKRETDFYLRNVEQGQHFLAADGDATRPNSSWTFTQRPTEQEFRARKAARPGGRERARLANVEDQARSNRGLLAKIFGAPLPAESKEKP
notes: ABT1, mouse, full-length cDNA synthesized (GenScript), cloned into pGEX6P1; 31 kDa ABT1 + ~26 kDa GST, predicted ~57 kDa; Mouse ABT1 was tested against human IGHMBP2; No cleavage of GST is described; also called GST-ABT1; pGEX-ABT1; source: E. coli (BL21 and Rosetta strains used), purified on GST beads, eluted with reduced glutathione; bacterial cell lysate in the immunoprecipitation
ATPase activity of IGHMBP2 (100 nM) with increasing ABT1 up to 120 nM (malachite green, free phosphate), fold increase over IGHMBP2 alone [2]: 1.96 fold
helicase activity of IGHMBP2 (100 nM) with increasing ABT1 up to 120 nM (Cy3-labelled DNA substrate), fold increase over IGHMBP2 alone [2]: 1.41 fold
nucleic acid unwinding rate of TP31-18mer duplex, 100 nM IGHMBP2 + 100 nM ABT1, 1-7 min (IGHMBP2 alone 1.141/min; printed as a 1.42-fold increase) [2]: 5.96 min⁻¹
rate of DNA substrate unwinding/nM protein, 100 nM IGHMBP2 with ABT1 20-100 nM, 7 min (IGHMBP2 alone 0.005/min; printed as 1.84-fold increased activity) [2]: 0.01 min⁻¹
stoichiometry N [3]: ~1
Kd [4]: ~52 nM
